Patent US20110086089A1, “USE OF P27KIP1 FOR THE PREVENTION AND TREATMENT OF HEART FAILURE” (UNIVERSITY HEALTH NETWORK, priority 2008, published 2011)

Test system: p27 phosphorylation at S83 and T187 in cardiomyocytes
Test: p27 phosphorylation at S83 and T187 in Ang II-treated cardiomyocytes (Western blot)
Format: cell-based, rat
Conditions: Ang II 4 h; lentiviruses 72 h; DMAT 20 μM pre-incubated 30 min; TAT-conjugated CK2-alpha-prime 2.5 μg/ml 1 h
Protocol: FIG. 2 is a series of graphs and blots showing Ang II triggers CK2-alpha-prime-dependent phosphorylation of p27 on S83 and T187 in cardiomyocytes. (A) p27 is a substrate of CK2-alpha-prime. […] In vitro kinase assays employing recombinant wt.p27 (1 μg) or phosphorylation site mutants of p27 as substrates were incubated with recombinant CK2-alpha-prime/beta (200 ng). Aliquots of the reaction mixtures were resolved on SDS-PAGE, electrotransferred to nitrocellulose membranes, and the amount of incorporated radioactive [^32P}-label into p27 was quantified with a PhosphorImager and ImageJ software. Individual membranes were probed with anti-CK2-alpha-prime, anti-p27 (input), or phosphorylation site specific antibodies to p27. […] Samples were resolved on SDS-PAGE, transferred to nitrocellulose-membranes, and the amount of incorporated radioactive label into histones was quantified with a PhosphorImager and ImageJ. The input amount of each CK2-alpha-prime and p27 protein used in the kinase reaction mixtures was monitored by immunoblot analysis employing anti-His. […] Biochemically fractionated extracts corresponding to 4×10^5 cells per lane were analyzed by immunoblotting employing antibodies as indicated on the left. […]

B1: kd.CK2-α′: catalytically-inactive kinase-dead CK2-alpha-prime, point mutation K69M; TAT-conjugated protein in mice, lentivirally expressed in cardiomyocytes (protein)
chain: MPGPAAGSRARVYAEVNSLRSREYWDYEAHVPSWGNQDDYQLVRKLGRGKYSEVFEAINITNNERVVVMILKPVKKKKIKREVKILENLRGGTNIIKLIDTVKDPVSKTPALVFEYINNTDFKQLYQILTDFDIRFYMYELLKALDYCHSKGIMHRDVKPHNVMIDHQQKKLRLIDWGLAEFYHPAQEYNVRVASRYFKGPELLVDYQMYDYSLDMWSLGCMLASMIFRREPFFHGQDNYDQLVRIAKVLGTEELYGYLKKYHIDLDPHFNDILGQHSRKRWENFIHSENRHLVSPEALDLLDKLLRYDHQQRLTAKEAMEHPYFYPVVKEQSQPCADNAVLSSGLTAAR
modifications: left off: small tags and cut ends
notes: TAT-conjugated protein in mice, lentivirally expressed in cardiomyocytes
  S83/T187 phosphorylation of p27 in cardiomyocytes: abolished
